The values below are quoted from earlier work in patent US8679781B2, “In vitro peptide expression library” (Isogenica Limited, priority 2002, dated 2014).

This series deals with double stranded DNA oestrogen receptor target HRE nucleotide sequence. The settings on record: fragment expressed in E. coli; similar to the parent molecule; read-out: affinity.

B1: oestrogen receptor DNA binding domain fragment (amino acids 176-282): oestrogen receptor DNA binding domain fragment (amino acids 176-282) expressed in E. coli (protein, UniProt P03372 176-282, looked up, fragment)
chain: MESAKETRYCAVCNDYASGYHYGVWSCEGCKAFFKRSIQGHNDYMCPATNQCTIDKNRRKSCQACRLRKCYEVGMMKGGIRKDRRGGRMLKHKRQRDDGEGRGEVGS
For the molecule B1, the Kd was 0.5 nM.
